Source: IntAct's records for PubMed 26592460

B1: "NAD(+) hydrolase SARM1" (Homo sapiens), Q6SZW1 (parent)
chain: MVLTLLLSAYKLCRFFAMSGPRPGAERLAVPGPDGGGGTGPWWAAGGRGPREVSPGAGTEVQDALERALPELQQALSALKQAGGARAVGAGLAEVFQLVEEAWLLPAVGREVAQGLCDAIRLDGGLDLLLRLLQAPELETRVQAARLLEQILVAENRDRVARIGLGVILNLAKEREPVELARSVAGILEHMFKHSEETCQRLVAAGGLDAVLYWCRRTDPALLRHCALALGNCALHGGQAVQRRMVEKRAAEWLFPLAFSKEDELLRLHACLAVAVLATNKEVEREVERSGTLALVEPLVASLDPGRFARCLVDASDTSQGRGPDDLQRLVPLLDSNRLEAQCIGAFYLCAEAAIKSLQGKTKVFSDIGAIQSLKRLVSYSTNGTKSALAKRALRLLGEEVPRPILPSVPSWKEAEVQTWLQQIGFSKYCESFREQQVDGDLLLRLTEEELQTDLGMKSGITRKRFFRELTELKTFANYSTCDRSNLADWLGSLDPRFRQYTYGLVSCGLDRSLLHRVSEQQLLEDCGIHLGVHRARILTAAREMLHSPLPCTGGKPSGDTPDVFISYRRNSGSQLASLLKVHLQLHGFSVFIDVEKLEAGKFEDKLIQSVMGARNFVLVLSPGALDKCMQDHDCKDWVHKEIVTALSCGKNIVPIIDGFEWPEPQVLPEDMQAVLTFNGIKWSHEYQEATIEKIIRFLQGRSSRDSSAGSDTSLEGAAPMGPT

Variants of: B1
Conditions: with myd88_human MYD88, Q99836
Sequence of myd88_human MYD88, Q99836 (Q99836 whole entry): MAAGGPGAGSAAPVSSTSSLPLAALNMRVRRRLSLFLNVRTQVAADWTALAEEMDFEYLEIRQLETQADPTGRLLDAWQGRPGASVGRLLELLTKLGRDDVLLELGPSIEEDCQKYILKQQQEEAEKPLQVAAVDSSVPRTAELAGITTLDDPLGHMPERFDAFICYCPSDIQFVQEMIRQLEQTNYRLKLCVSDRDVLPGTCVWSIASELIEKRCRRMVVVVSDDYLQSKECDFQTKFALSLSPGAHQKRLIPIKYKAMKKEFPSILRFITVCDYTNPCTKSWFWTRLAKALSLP

effect of a mutation on the interaction	Variant
disrupting interaction strength	G601A

Variants of: B1
Conditions: with tcam1_human TICAM1, Q8IUC6
Sequence of tcam1_human TICAM1, Q8IUC6 (Q8IUC6 whole entry): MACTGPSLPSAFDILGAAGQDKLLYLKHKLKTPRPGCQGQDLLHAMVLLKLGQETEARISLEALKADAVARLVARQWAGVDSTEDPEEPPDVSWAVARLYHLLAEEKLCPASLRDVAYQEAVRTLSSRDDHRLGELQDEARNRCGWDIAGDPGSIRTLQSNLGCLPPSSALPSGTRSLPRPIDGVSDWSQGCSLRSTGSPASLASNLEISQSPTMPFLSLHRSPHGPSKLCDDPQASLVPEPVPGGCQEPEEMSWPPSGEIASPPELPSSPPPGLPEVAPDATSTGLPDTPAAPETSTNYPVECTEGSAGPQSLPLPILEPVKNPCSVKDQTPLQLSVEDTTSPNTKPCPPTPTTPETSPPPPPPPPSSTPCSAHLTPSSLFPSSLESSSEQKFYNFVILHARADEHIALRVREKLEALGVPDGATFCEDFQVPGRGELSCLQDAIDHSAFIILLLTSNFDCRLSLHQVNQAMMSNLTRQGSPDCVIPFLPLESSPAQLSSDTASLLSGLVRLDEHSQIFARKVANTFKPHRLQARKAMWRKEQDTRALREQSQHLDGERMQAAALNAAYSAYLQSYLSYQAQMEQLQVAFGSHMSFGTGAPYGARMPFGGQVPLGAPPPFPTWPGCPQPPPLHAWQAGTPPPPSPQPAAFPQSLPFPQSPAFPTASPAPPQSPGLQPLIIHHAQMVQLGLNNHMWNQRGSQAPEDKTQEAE

effect of a mutation on the interaction	Variant
disrupting interaction strength	G601A

Variants of: B1
Conditions: with tirap_human TIRAP

effect of a mutation on the interaction	Variant
disrupting interaction strength	G601A

Variants of: B1
Conditions: with tcam2_human TICAM2, Q86XR7
Sequence of tcam2_human TICAM2, Q86XR7 (Q86XR7 whole entry): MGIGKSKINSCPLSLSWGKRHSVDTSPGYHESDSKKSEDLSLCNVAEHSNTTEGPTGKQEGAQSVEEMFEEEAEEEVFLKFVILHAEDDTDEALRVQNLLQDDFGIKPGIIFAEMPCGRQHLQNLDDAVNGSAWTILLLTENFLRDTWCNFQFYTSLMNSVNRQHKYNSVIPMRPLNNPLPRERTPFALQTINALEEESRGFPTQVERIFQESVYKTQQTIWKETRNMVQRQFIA

effect of a mutation on the interaction	Variant
disrupting interaction strength	G601A
